Key:
[1] = target: T1, Recombinant human LPL (mature human lipoprotein lipase, amino acids 28-475) (human, UniProt P06858 28-475); assay: crystal structure of the complex (data not shown)
T1 construct: also called LPL alone; hLPL
T1 sequence: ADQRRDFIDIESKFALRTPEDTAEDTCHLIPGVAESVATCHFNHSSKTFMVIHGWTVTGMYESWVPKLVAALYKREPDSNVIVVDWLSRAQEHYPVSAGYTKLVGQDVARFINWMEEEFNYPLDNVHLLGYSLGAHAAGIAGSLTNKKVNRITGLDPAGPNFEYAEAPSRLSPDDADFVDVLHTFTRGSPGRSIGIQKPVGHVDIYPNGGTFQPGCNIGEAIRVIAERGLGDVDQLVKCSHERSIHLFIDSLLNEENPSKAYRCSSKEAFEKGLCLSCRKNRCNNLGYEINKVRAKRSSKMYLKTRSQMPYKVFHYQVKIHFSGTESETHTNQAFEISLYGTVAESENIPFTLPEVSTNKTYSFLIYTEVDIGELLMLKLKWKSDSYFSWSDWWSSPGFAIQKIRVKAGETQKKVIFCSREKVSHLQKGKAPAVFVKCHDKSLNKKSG

His6-Human LPL(28-475) = target: T2, His6-Human LPL(28-475) (human, UniProt P06858 28-475); assay: Ni-affinity co-purification of untagged GPIHBP1 with N-terminally 6-His tagged LPL (SDS-PAGE), then size exclusion chromatography against MW standards
T2 construct: also called N-terminally 6-His tagged LPL
T2 sequence: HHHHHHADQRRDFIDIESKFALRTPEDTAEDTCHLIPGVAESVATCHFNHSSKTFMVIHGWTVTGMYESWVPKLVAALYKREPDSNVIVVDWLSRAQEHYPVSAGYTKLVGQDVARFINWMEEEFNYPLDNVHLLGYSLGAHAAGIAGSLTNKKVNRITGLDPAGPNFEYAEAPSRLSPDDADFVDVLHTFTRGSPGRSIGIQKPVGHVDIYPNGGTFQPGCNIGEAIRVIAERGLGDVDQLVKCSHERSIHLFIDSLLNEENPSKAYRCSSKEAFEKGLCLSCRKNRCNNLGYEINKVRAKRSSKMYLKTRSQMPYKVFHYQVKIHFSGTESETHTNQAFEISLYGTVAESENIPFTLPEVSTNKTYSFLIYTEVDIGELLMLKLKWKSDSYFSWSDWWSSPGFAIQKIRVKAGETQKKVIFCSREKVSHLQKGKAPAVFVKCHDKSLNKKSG
Excerpt: Initially an attempt was made to purify LPL protein by itself. In order to aid this purification, a variety of LPL constructs were synthesized that were either untagged or had N- or C-terminal tags. These LPL constructs were expressed in mammalian cells and purified using heparin chromatography or Ni-affinity chromatography. […] Co-expression of the purified soluble form of GPIHBP1 with LPL protected LPL against spontaneous inactivation (data not shown). GPIHBP1 was then co-expressed with LPL in the presence of LMF1 in the following manner: N-terminally 6-His tagged LPL, untagged GPIHBP1, and LMF1 were co-transfected in a ratio of 3:1:1 into HEK293T cells. The expressed protein complex was captured using Ni-affinity chromatography. […] Importantly, the presence of GPIHBP1 and LMF1 generated an LPL/GPIHBP1 complex that was homogenous and eluted as a ˜75 KDa complex during size exclusion chromatography (FIG. 1, panel C). This agreed well with the predicted molecular weight of a 1:1 LPL/GPHBP1 complex.

B1: Human soluble GPIHBP1 (aa 21-151) (receptor)
chain: QTQQEEEEEDEDHGPDDYDEEDEDEVEEEETNRLPGGRSRVLLRCYTCKSLPRDERCNLTQNCSHGQTCTTLIAHGNTESGLLTTHSTWCTDSCQPITKTVEGTQVTMTCCQSSLCNVPPWQSSRVQDPTG
notes: also called untagged GPIHBP1; solGPIHBP1
[1]
  binding result: binds
His6-Human LPL(28-475)
  binding result: binds

— US20220025344A1 (Novartis, published 2022)
